In paper PMC11960969, “Mdga2 deficiency leads to an aberrant activation of BDNF/TrkB signaling that underlies autism-relevant synaptic and behavioral changes in mice” (PLOS Biology, 2025):

B1: sp¦Q6NWV3¦IF122_MOUSE (protein, UniProt Q6NWV3 1-1182, looked up)
Intraflagellar transport …: MRAVLTWRDKAEQCIYDLAFKPDGTQLILAAGNRLLVYDTSDGTLLQPLKGHKDTVYCVAYAKDGKRFASGSADKSIIIWTSKLEGILKYTHNDSIQCVSYNPVTHQLASCSSSDFGLWSPEQKSVSKHKSSSKITCCSWTNDGQYLALGMANGIISIRNKNGEEKVKIERPGGSLSPIWSICWNPSREEHNDILAVADWGQKLSFYQLSGKQIGKDRPLNFDPCCISYFTKGEYILVGGSDKQVSLFTKDGVRLGTVGEQNSWVWTCRVKPDSNYVVVGCQDGTISFYQLIFSTVHGLYKDRYAYRDSMTDVIVQHLITEQKVRIKCRELVKKIAIYKNRLAIQLPEKILIYELYSEDSTDMHYRVKEKIVKKFECNLLVVCADHIILCQEKRLQCLSFSGVKEREWQMESLIRYIKVIGGPAGREGLLVGLKNGQILKIFVDNLFAIVLLKQATAVRCLDMSASRNKLAVVDENDTCLVYDIHTKELLFQEPNANSVAWNTQCEDMLCFSGGGYLNIKASTFPVHQQKLQGFVVGYNGSKIFCLHVFSMSAVEVPQSAPMYQYLDRKMFKEAYQIACLGVTDADWRELAMEALEGLEFETARKAFTRVQDLRYLELISSIEERKKRGETNNDLFLADVFSYQGKFHEAAKLYKRSGHENLALDMYTDLCMFEYAKDFLGSGDPKETKMLITKQADWARNINEPKAAVEMYISAGEHAKAIEISGSHGWVDMLIDIARKLDKAEREPLLMCACYFKKLDSPGYAAETYLKIGDLKSLVQLYVDTKRWDEAFALGEKHPEFKDDVYVPYAQWLAENDRFEEAQKAFHKAGRQGEAVRVLEQLTHNAVVESRFNDAAYYYWMLSMQCLDMAQDPAQKDAMLDKFHHFQHLAELYHGYQTIHRYTEEPFSFDLPETLFNISKFLLHSLTKATPLGISKVNTLFTLAKQSKALGAYKLARHAYDKLRGLQIPARIQKSIELGTLTIRSKPFHDSEELVPLCYRCSTNNPLLNNLGNVCINCRQPFIFSASSYEVLHLVEFYLEEGITDEEAVALIDLEAPRHKREGKWRETSSNNSQTLKLDETMDSIGEDDPFTAKLSFEQGSSEFVPVVVNRSVLRSMSRRDVLIKRWPPPLQWQYFRSLLPDASITMCPSCFQMFHSEDYELLVLQHACCPYCRRRIDDTGP
B2: sp¦P0C7L0¦WIPF3_MOUSE (protein, UniProt P0C7L0 1-485, looked up)
WAS/WASL-interacting protein …: MPVPPPPPPPPPPPPPPPPPLGAPPPPPLGAPPPPPPPGPPVSTDTPSLRKPDLKGRSALLADIQQGTRLRKVTQINDRSAPQIEGSKGTSKEGGAAGSNARGGNTPPALGDLFAGGFPVLRPAGQRDVSGGKSGQGPGSRAPSPRLPIKAISGPLPAPASPRLGNASETHSSARPVPPRPSVPAPPPPTPPPPPPPPLPPASPIKAQLVSPPAPPTKVNPSVVPPPLPCAPPLPPPPPTPPPLPPASALSDKAVRPQLAPLHLPPIPPPLPLLPPCGYPGLHSEPNSPAQEVREPPAPPPPPPPPPPPPLPTYASCSSRTAVAPPPLPGANNSGSETPPPLPPKSPSFQTQKALPTPPGAPGPQAILQKKRRGPGTSGGKLNPPPAPPARSPTTELSSKSQQPGGQLRNGGQHAIDDFESKFTFHSMEDFPPPDEYKPCQKIYPSKVPRSRTPGSWLQAEAAGQSSDDIKSRNSQLSLKALPVR
B3: sp¦Q3UHB1¦NT5D3_MOUSE (protein, UniProt Q3UHB1 1-546, looked up)
5'-nucleotidase …: MATVAAAARGAGARAAAGLRSCGGAVARERPRSGCARRLCSAPAAPAAVDMKSYLWARYHEAKRSTDELVPSIMNNLLNPDAIFSNNEMSLSDIEIYGFDYDYTLVFYSKHLHTLIFNAARDLLINEHRYPVEIRKYEYDPSFAIRGLHYDVQRAVLMKIDAFHYIQMGTVYRGLSVVPDEEVIDMYEGSHVPLEQMSDFYGKSSHGNTMKQFMDIFSLPEMTLLSCVNEHFLKNNIDYEPVHLYKDVKDSIRDVHIKGIMYRAIEADIEKYICYADQTRAVLAKLAAHGKKMFLITNSPSSFVDKGMRYIVGKDWRDLFDVVIVQAEKPNFFNDKRRPFRKVNEKGVLLWDKIHKLQKGQIYKQGNLYEFLKLTGWRGSKVLYFGDHIYSDLADLTLKHGWRTGAIIPELRSELRIMNTEQYIQTMTWLQTLTGLLEQMQVHRDAESQLVLQEWKKERKEMREMTKSFFNAQFGSLFRTDQNPTYFLRRLSRFADIYMASLSCLLNYDVHHTFYPRRTPLQHELPAWSDSPSAFKAPLLQEAQAK

Tested on: hippocampal proteins
Experiment: DIA quantification proteomics, hippocampus of Mdga2+/- vs WT mice
Set-up: species or system mouse
Conditions: S3 Table, downregulated DEPs; for log2FC: Mdga2+/- vs WT mouse hippocampus (HET-HIP-VS-WT-HIP), SE, pvalue and adj_pvalue in own columns c3-c5; for Class: regulation class of the protein, HET-HIP-VS-WT-HIP
Method: The hippocampus of 1.5–2-month-old Mdga2^ +/− male mice and their WT littermate controls was collected and sent to the BGI company for DIA quantification proteomics and data analysis. Briefly, samples were lysed and sonicated. After centrifugation, the supernatant was taken for quantification. Equal amounts of proteins (100 μg) per sample were subjected to trypsin enzymatic hydrolysis. After dryness, 10 μg enzymatic peptides per sample were separated by high-pH fractionation into a total of 10 fractions using high-performance liquid chromatography (HPLC) and freeze-dried. Data-dependent acquisition (DDA) fractions and DIA samples were analyzed by nano-LC–MS/MS. DDA data was identified by Andromeda search engine within MaxQuant. Identified results were used by Spectronaut^TM for spectral library construction. For DIA data, Spectronaut^TM used the constructed spectral library information to complete deconvolution and extraction, and used the mProphet algorithm to complete analytical quality control for obtaining reliable quantitative results. The mass spectrometry proteomics data have been deposited to the ProteomeXchange Consortium via the PRIDE [62] partner repository with the dataset identifier PXD050810. DEPs between comparison groups were identified based on the quantitative results, using the fold change >1.1 and p-value <0.05 as the criteria. After retrieval from the UniProtKB database, identified DEPs were processed for GO analysis by using DAVID (https://david.ncifcrf.gov/home.jsp) and Metascape database (https://metascape.org/gp/index.html).

Row | Molecule | log2FC | Class
1 | B1 | -1.266 | Down
2 | B2 | -1.266 | Down
3 | B3 | -1.2606 | Down
